Publication doi:10.1101/781070 (bioRxiv, 2019)

Biological target: the molecule itself
Assay: crystal structure

B1: Drosophila melanogaster Noppera-bo (DmNobo), wild type (enzyme)
chain: MSQPKPILYYDERSPPVRSCLMLIKLLDIDVELRFVNLFKGEQFQKDFLALNPQHSVPTLVHGDLVLTDSHAILIHLAEKFDEGGSLWPQEHAERMKVLNLLLFECSFLFRRDSDFMSATVRQGFANVDVAHHERKLTEAYIIMERYLENSDFMAGPQLTLADLSIVTTLSTVNLMFPLSQFPRLRRWFTAMQQLDAYEANCSGLEKLRQTMESVGSFQFPSSSAVVTEKVE
  stoichiometry N: 2
